Measured values reported in paper PMC7660097, “Structural Insights into the Interactions of Candidal Enolase with Human Vitronectin, Fibronectin and Plasminogen” (International Journal of Molecular Sciences, 2020).

B1: human vitronectin (natural protein)
chain: DQESCKGRCTEGFNVDKKCQCDELCSYYQSCCTDYTAECKPQVTRGDVFTMPEDEYTVYDDGEEKNNATVHEQVGGPSLTSDLQAQSKGNPEQTPVLKPEEEAPAPEVGASKPEGIDSRPETLHPGRPQPPAEEELCSGKPFDAFTDLKNGSLFAFRGQYCYELDEKAVRPGYPKLIRDVWGIEGPIDAAFTRINCQGKTYLFKGSQYWRFEDGVLDPDYPRNISDGFDGIPDNVDAALALPAHSYSGRERVYFFKGKQYWEYQFQHQPSQEECEGSSLSAVFEHFAMMQRDSWEDIFELLFWGRTSAGTRQPQFISRDWHGVPGQVDAAMAGRIYISGMAPRPSLAKKQRFRHRNRKGYRSQRGHSRGRNQNSRRPSRATWLSLFSSEESNLGANNYDDYRMDWLVPATCEPIQSVFFFSGDKYYRVNLRTRRVDTVDPPYPRSIAQYWLGCPAPGHL
modifications: biotin (NHS-biotin) in the cell-binding assays of Figure 1; sulfo-SDAD on amino groups in the cross-linking
notes: Vitronectin, human; also called VTR; VTR-Bt; source: bought: R&D Systems
B2: C. albicans cytosolic enolase (enzyme, UniProt P30575 1-440, looked up)
chain: MSYATKIHARYVYDSRGNPTVEVDFTTDKGLFRSIVPSGASTGVHEALELRDGDKSKWLGKGVLKAVANVNDIIAPALIKAKIDVVDQAKIDEFLLSLDGTPNKSKLGANAILGVSLAAANAAAAAQGIPLYKHIANISNAKKGKFVLPVPFQNVLNGGSHAGGALAFQEFMIAPTGVSTFSEALRIGSEVYHNLKSLTKKKYGQSAGNVGDEGGVAPDIKTPKEALDLIMDAIDKAGYKGKVGIAMDVASSEFYKDGKYDLDFKNPESDPSKWLSGPQLADLYEQLISEYPIVSIEDPFAEDDWDAWVHFFERVGDKIQIVGDDLTVTNPTRIKTAIEKKAANALLLKVNQIGTLTESIQAANDSYAAGWGVMVSHRSGETEDTFIADLSVGLRSGQIKTGAPARSERLAKLNQILRIEEELGSEAIYAGKDFQKASQL
modifications: biotin (biotin-labeled enolase) in the microplate assays
notes: Enolase of Candida albicans (strain ATCC 10231), cytosolic form; identified by LC-MS/MS; also called C. albicans enolase, cytosol; source: purified from C. albicans ATCC 10231 cytosol (ammonium sulphate fractionation, MonoQ, MonoS)
B3: C. tropicalis cytosolic enolase (enzyme, UniProt C5MD83 1-440, looked up)
chain: MSYATKIHARTVYDSRGNPTVEVELTTDNGMFRSIVPSGASTGIHEALELRDGDKSKWLGKGVLKAVSNVNDIIAPALIDAKIDVNDQSKIDEFMIKLDGTPNKSKLGANAILGVSLAAANAAAANQGIPLYQHIANLSKSKKDKYVLPVPFQNVLNGGAHAGGDLAFQEFMIVPTGAESFSEAMRIDSEVYHTLKSLAKKKYGQSAGNVGDEGGVAPDLRTPEEALDLIVESIEQAGHTGKVKIAMDPASSEFFKDGKYDLDFKNPNPDPAKRLSGKELAELYERLINKYPIVLLEDPFAEDDWDAWVHFFKIVGDKVQIVADDLTVTNPIRIKKAIEKKCANALLVKVNQIGTLSESIVAANDAFGAGWGVMVSHRSGETEDTFIADLVVGLRAGQIKTGAPARSERLAKLNQILRIEESLGDDAIYAGKNFAVAHQL
modifications: biotin (biotin-labeled enolase) in the microplate assays
notes: Enolase of Candida tropicalis (strain T1, ATCC MYA-3404), cytosolic form; identified by LC-MS/MS; also called C. tropicalis enolase, cytosol; source: purified from C. tropicalis T1 (ATCC MYA-3404) cytosol (ammonium sulphate fractionation, MonoQ, MonoS)

Tests used:
[1] = target: T1, C. albicans cell surface-exposed enolase (C. albicans, UniProt P30575 1-440, biotin (biotin-labeled enolase) in the microplate ligand-binding assay); assay: SPR; BIACORE 3000; enolase amine-coupled to a CM5 chip (about 300 RU); human protein as analyte (40-750 nM or 75-750 nM), 30 µL/min, 25 °C, 10 mM HEPES, 150 mM NaCl, 0.005% P20, pH 7.4; 1:1 Langmuir global fit with baseline drift and local Rmax; regeneration 1 M NaCl; settings: both partners purified
T1 construct: Enolase of Candida albicans (strain ATCC 10231), form exposed at the cell surface; identified by LC-MS/MS, non-glycosylated, 47 kDa; Same protein as m2, isolated from another compartment; also called C. albicans enolase, cell wall; cell wall-associated enolase

human vitronectin = target: B1; assay: as above; settings: both partners purified

B1
Kd [1]: 31.1 nM | koff [1]: 0.00417 s⁻¹ | kon [1]: 134000 M⁻¹ s⁻¹

B2
Kd (human vitronectin): 55.3 nM | koff (human vitronectin): 0.00493 s⁻¹ | kon (human vitronectin): 89100 M⁻¹ s⁻¹

B3
Kd (human vitronectin): 683 nM | koff (human vitronectin): 0.00915 s⁻¹ | kon (human vitronectin): 13400 M⁻¹ s⁻¹
